Data taken from patent US20230416345A1, “NEW TYPE II COLLAGEN BINDING PROTEINS” (Navigo Proteins GmbH, priority 2020, published 2023).

Experiments:
[1] = target: T1, human collagen type III (Homo sapiens, UniProt P02461); experiment: ELISA specificity vs human collagen type III; format: binding
T1 construct: purchased Abcam ab7535
T1 sequence (P02461 154-1221 limits assumed): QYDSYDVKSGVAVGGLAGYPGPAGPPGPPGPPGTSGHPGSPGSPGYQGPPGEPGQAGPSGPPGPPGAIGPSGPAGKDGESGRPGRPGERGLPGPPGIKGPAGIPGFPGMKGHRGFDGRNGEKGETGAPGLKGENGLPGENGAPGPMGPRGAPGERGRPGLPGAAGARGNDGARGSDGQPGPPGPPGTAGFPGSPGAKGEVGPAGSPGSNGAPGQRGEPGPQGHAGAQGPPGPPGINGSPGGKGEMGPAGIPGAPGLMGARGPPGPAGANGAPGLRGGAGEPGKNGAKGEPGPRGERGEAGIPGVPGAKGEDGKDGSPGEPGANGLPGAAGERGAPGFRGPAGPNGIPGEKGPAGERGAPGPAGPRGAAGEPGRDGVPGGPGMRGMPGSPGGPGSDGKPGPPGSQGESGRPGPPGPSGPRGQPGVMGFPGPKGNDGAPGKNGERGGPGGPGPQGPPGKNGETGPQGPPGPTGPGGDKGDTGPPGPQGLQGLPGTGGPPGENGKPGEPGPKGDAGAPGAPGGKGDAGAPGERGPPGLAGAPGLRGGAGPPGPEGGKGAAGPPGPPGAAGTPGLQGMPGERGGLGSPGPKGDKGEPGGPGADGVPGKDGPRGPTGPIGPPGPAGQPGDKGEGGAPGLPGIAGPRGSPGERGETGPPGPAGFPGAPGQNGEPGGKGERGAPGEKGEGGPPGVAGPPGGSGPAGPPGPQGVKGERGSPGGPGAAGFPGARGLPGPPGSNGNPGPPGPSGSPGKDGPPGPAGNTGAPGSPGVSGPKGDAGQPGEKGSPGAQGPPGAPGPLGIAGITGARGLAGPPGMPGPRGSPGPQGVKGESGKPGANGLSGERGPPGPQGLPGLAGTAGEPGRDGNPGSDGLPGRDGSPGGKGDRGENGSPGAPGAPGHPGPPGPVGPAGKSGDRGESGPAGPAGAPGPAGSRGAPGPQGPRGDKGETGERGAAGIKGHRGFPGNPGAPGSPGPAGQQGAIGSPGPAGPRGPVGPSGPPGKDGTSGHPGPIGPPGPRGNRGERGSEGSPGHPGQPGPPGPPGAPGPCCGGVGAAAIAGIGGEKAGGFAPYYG
Experimental: High binding plates (Greiner, 781061) were immobilized with 2.5 μg/ml recombinant human collagen type II (h Col II, Chondrex, CHX-20051), rabbit collagen type II (rbCol II, prepared from rabbit eyes), porcine collagen type II (p Col II, prepared from porcine eyes), human collagen type I, (h Col I, Sigma, C5483-1MG), human collagen type V (h Col V, Abcam, ab7537), human collagen type III (h Col Ill, Abcam, ab7535) and 67B89 (domain of fibronectin, produced in E. coli) respectively over night at 4° C. ELISA-plates were washed 3 times with PBST (PBS+ 0.1% Tween) and blocked with 3% BSA/0.5% Tween/PBS 2 h at RT. After washing with PBST, dilution series of 1.1 μM to 7×10^−4 nM of dimers (CID 211999, CID 212000), dilution series of 100 nM to 7×10^−6 nM of tetramers (CID 212001 and CID 212704) and dilution series of 10 μM to 2 nM of dimer (CID 212705) were incubated on ELISA-plates 1 h at rt. Plates were washed with PBST and incubated with biotinylated anti-StrepTag-ab (Antikörper-online, ABIN1573895) with a dilution of 1:10.000 for 1 h at rt. The binding was visualized with a-rabbit-IgG-HRP (Sigma, A9169) with a dilution of 1:10.000 and as substrate TMB Plus von KEM EN TEC Diagnostic, Kat-Nr. 4395.

[2] = Soluble expression in Escherichia coli BL21(DE3); format: physicochemical; details: expression in E. coli BL21(DE3)
Experimental: Variants with affinity tag were expressed in Escherichia coli BL21(DE3) using a low copy plasmid system under regulation of a T7 promoter. Proteins were produced in soluble form after induction by lactose included in the medium (autoinduction medium). BL21 (DE3) competent cells were transformed with the expression plasmid, spread onto selective agar plates (kanamycin) and incubated overnight at 37° C. Precultures were inoculated from single colony in 3 ml 2×YT medium supplemented with 50 μg/ml kanamycin and cultured for 6 hours at 37° C. at 200 rpm in a conventional orbital shaker in culture tubes. […] Cultures were transferred to an orbital shaker and incubated at 30° C. and 200 rpm. Recombinant protein expression was induced by metabolizing glucose and subsequently allowing lactose to enter the cells. Cells were grown overnight for approx. 17 hours to reach a final OD600 of about 2-4. Before the harvest, the OD600 was measured, samples adjusted to 0.6/OD600 were withdrawn, pelleted and frozen at −20° C. To collect biomass cells were centrifuged at 12000×g for 15 min at 22° C. Pellets were weighed (wet weight). Cells were stored at −20° C. before processing.
Proteins with affinity tag were purified by affinity chromatography and size exclusion. After affinity chromatography purification using Strep-Tactin Superflow high capacity cartridges (IBA Lifesciences) a size exclusion chromatography (SEC) was performed using an Äkta system and a Superdex™ 200 HiLoad 16/600 column (Cytiva). Fused variants with Aflibercept were purified via MabSelect SuRe (Cytiva) affinity chromatography followed by a size exclusion chromatography (SEC) using an Äkta system and a Superdex™ 200 HiLoad 16/600 column (Cytiva). All chromatography processing steps were carried out on AKTA systems using matrices from Cytiva. Homogenous species of all purified ligands were obtained; no aggregation was detected. Following SOS-PAGE analysis positive fractions were pooled and their protein concentrations were measured. Further analysis included SOS-PAGE, SE-HPLC and RP-HPLC. Protein concentrations were determined by absorbance measurement at 280 nm using the molar absorbent coefficient. Reversed phase chromatography (RP-HPLC) was performed using a Dionex HPLC system and a PLRP-S (5 μm, 300 Å) column (Agilent). Analytic size exclusion chromatography (SE-HPLC) was performed using a Dionex HPLC system and a Superdex200 increase 5/150 GL (Cytiva). Binding of Collagen II was evaluated by SPR measurements using a Biacore 3000 system. Purified Collagen II was obtained from Chondrex.inc and VEGF-165 was obtained from Millipore. Targets were immobilized on a CM5-Sensor via NHS/EDC chemistry (immobilization level ˜1000 RU). Binding molecules were injected at different concentration and affinity was calculated by langmuir 1:1 binding model.

B1: CID 212000: dimer of SEQ ID NO: 2 (dimer with linker between the monomers) (protein)
chain: IAAKFDEAQSAADSEILHLPNLTEQQRHYFRRWLSDDPSVSTHILTQAQHLNDDQAPKGGGGSGGGGSGGGGSGGGGSIAAKFDEAQSAADSEILHLPNLTEQQRHYFRRWLSDDPSVSTHILTQAQHLNDDQAPKSAWSHPQFEK
modifications: Col2 binding protein (dimer of 211261) (CID212000)
For B1, the “binding to type III collagen (ELISA)” value [1] was “No unspecific binding” and the “Solubility Soluble expression” value [2] was 100%.
